{
  "source": "the nanobody polyreactivity screen of Harvey et al. (2022)",
  "data": [
    {"assay": "yeast display, Sf9 membrane polyspecificity reagent, FACS + sequencing; frameworks hold sequencing errors", "how_it_was_run": "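Polyreactivity labels are assigned by the sorting gate from which each nanobody was recovered. The gates were low and high (top ~1%), set on anti-HA fluorescence for expression and streptavidin fluorescence for reagent binding. Before sorting, galactose-induced (36–48 hours) yeast display cells were stained for 1 hour at 4 °C with 10% biotinylated, detergent-solubilized Sf9 membrane reagent.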", "values": [
      {"sequence": "QVQRVESGGGLVQAGGSLRISCAASGLIFYRYAMGRYRQAPGKERELVAAISKRGTSTYYADSVKGRFTISRDNAKNTVYLQMNSLKPEDTAVYYCAADVQEEYDYWGLGTQVTVSS", "polyreactivity (PSR sort gate)": "high polyreactivity"},
      {"sequence": "QVQLVESGGGLVQAGGSLRLSCAASGRIFGGYAMGWYRQAPGKERELVASITGGGTTDYADSVKGRFTISRDNAKNTVYLQMNSLKPEDTAVYYCAKRSHQFGVSRSYNTYYYWGQGTQVTVSS", "polyreactivity (PSR sort gate)": "low polyreactivity"},
      {"sequence": "QVQLVESGGGLVQAGGSLRLSCAASGLTFDNNAMGWYRQAPGTERELVAAISYRGSSTYYADSVKGRFTISRDNAKNTVYLQMNSLKPEDTAVYYCAADVVDLGRFDYWGQRTQVTVSS", "polyreactivity (PSR sort gate)": "low polyreactivity"},
      {"sequence": "QVQLVESGGGLVQAGGSLRLSCAASGGIFFPNAMGWYRQAPGKERELGAAISWSAGSTYYADSVKGRFTISRDNAKNTVYLQMNSLKPEDTAVYYCAAAGSNYTVWYGYYYWGQGTQVTVSS", "polyreactivity (PSR sort gate)": "low polyreactivity"},
      {"sequence": "QVQLVESGGGLVQAGGSLRLSCAASGSTLVIYAMGWYRQAPGKERELVAAINFSDGSTSYADSVKGRFSISRDNAKNTVYLQMNRLKPEDTAVYYLGQGTQVTVSS", "polyreactivity (PSR sort gate)": "low polyreactivity"},
      {"sequence": "QVQHVESGGGLVQAGGSLRLSCAASGGIFYYYAMGWYRPAPGKERELVATISNGGSTYYADSVKGRFTISRDNAKNTVYLQMNSLNPEDTAVYYCAARDGRQPRGYRLVTYYAPMYYWGQGTQVTVSS", "polyreactivity (PSR sort gate)": "high polyreactivity"},
      {"sequence": "QVKLVESGGGLVQAGGSLRLSCAASGFTFSYYAMGWYRQAPGKERELVAAISYSGSATYYADSVKVRFTISRDNAKNTVYLQLNSLIPEDTAVYYCNARGATRGLTAYTYDSWGQGTQVTVSS", "polyreactivity (PSR sort gate)": "high polyreactivity"},
      {"sequence": "QVQLVESGGGLVQAGGSLRLSCAASGLIFIAYSMGWYRQAPGKEREFVAAITWNGVSTYYADSVKGRFTISRDNAKNTVYLQMNSLKPEDTAVYDCNADYDFSPWAYEYWGQGTQVTVSS", "polyreactivity (PSR sort gate)": "high polyreactivity"},
      {"sequence": "QVQLVESGGGLVHAGGSLRLSCAASGRTFAGNVMGWYIQAPGKEREFVAAISLSGGNTYYADSVKGRFTISRDNAKNTVYLQMNSLKPEDTAVYYCAADYEYSGYGYWGQGTQVTVSS", "polyreactivity (PSR sort gate)": "high polyreactivity"},
      {"sequence": "QVQLVESGGGLVQAGGSLRLSCAASGFTFRRYAMGWYRQAAGKERELVASNSWRGGTTYYADSVKGRFTISRDNAKNTVYLQMNSLKPDDTAVYYCARGAATPPGYYSSGQGTQVTVSS", "polyreactivity (PSR sort gate)": "low polyreactivity"},
      {"sequence": "QVQLVESGGGLVQAGGSLRLSCAASGFTFKYNVMGWYIQAPGKERELVAAISSAGNTNYADSVKGRFTISRDNAKNTVYLQMNSLKPEDTAVYFCAKRRDTLYVGVEGYYWGQGTQVTVSS", "polyreactivity (PSR sort gate)": "high polyreactivity"},
      {"sequence": "QVQLVESGGGLVQAGGSLRLSCAASGLTFYGYAMGWYRQAPGKERELVAAIRWSGGRTYYADSVKGRFTISRDNAKNTVYLQMNSLKPEDTAVYYCAADYRRYYGGDYWGQGTQVTVSS", "polyreactivity (PSR sort gate)": "low polyreactivity"},
      {"sequence": "QEQLVESGGGLDQAGGSLRLSCAASGYTFVNYAMGWYRQAPGKERELVAAITSRGSSTYYADSVKGRFTISRDNAKNTVYLQMNSLKPEDTAVYYCAAYSSSLQGGYWGQGTQVTVSS", "polyreactivity (PSR sort gate)": "high polyreactivity"},
      {"sequence": "QVQLVESGGGLVQAGGSLRLSCAASGRIFPYNAMGWYRQAPGKERELVASITGSGGSTYYADSVKGRFTISRDKAKKTVYLQMNSLKPEDTAVYYCAVQGGYFYTWDGDYWGQGTQVTVSS", "polyreactivity (PSR sort gate)": "low polyreactivity"},
      {"sequence": "QFQLVESGGGLVQAGGSLRLSCAASGRTFRGYAMGWYRQATGTERELVAAITWRGGSTYYADSVKGRFTISRDNEKNTVYLQMNSLKPEDTAVYYCNTLVWSYLGGYYSRYDYWGQGTQVTVSS", "polyreactivity (PSR sort gate)": "high polyreactivity"},
      {"sequence": "QVQLVESGGGLVQAGGSLRISCAASGFTFPYYAMGWYRQAPGKERELVAAISYNGGSTYYADSVKGRFTISRDNAKNTVYLQMNSLKPEDTAVYYCNAVYYDSGVVGYYYWGQGTQVTVSS", "polyreactivity (PSR sort gate)": "high polyreactivity"},
      {"sequence": "QVQLVESGGGLVQAGGSLRLSCSASGITFYRYVMGWYRQAPGKERELVAAISRGGGSTYYADSVKGRFTISRDNAKNTVYLQMNSLKPEDTAVYYCAARAWVQGGIGGQSWFDYWGQGTQVTVSS", "polyreactivity (PSR sort gate)": "high polyreactivity"},
      {"sequence": "QVQLVESGGGLVQPGGSLRLSCAASGSIYTNAMGWYRQAPGKERELVAAISWSGGRTYYADSVKGRFTISRDNAKNTVYFQLNSLKPEDTAVYYCNTRGTRIASGHYYWGQGTQVTVSS", "polyreactivity (PSR sort gate)": "high polyreactivity"},
      {"sequence": "QVQLVESGGVLVQAGGSLRLSCAASGRTFTPYTMGCDRPAPGKERELVAAISWSGGTTYYADSVMGRFTISRDNSKITVYLQMNSLKRVDTAVYYCAARVSRTCHGYYYFWGQGTQVTVSS", "polyreactivity (PSR sort gate)": "high polyreactivity"},
      {"sequence": "QVQLVESGGGLVQAGGSLRLSCAASGYTFRSYLGWYRQAPGKEREFVADISTSVTNTYYADSVKGRFTISRDNAKNTVYLQMISLKPEDTAVYYCAAGVQSVYNGEPGIILDFDYWGQGTQVTVSS", "polyreactivity (PSR sort gate)": "low polyreactivity"},
      {"sequence": "QVQLVESGGGLVQAGGSLRLSCAASGRTNSFYAMGWYRQAPGKERELVAAISRGGTTNYADSVKGRFTISRDNAKNTVYLQMNSLKPEDTAVYYCAASYFRRGFYSIYEYDYWGQGTQVTVSS", "polyreactivity (PSR sort gate)": "low polyreactivity"},
      {"sequence": "QVQLVESGGGLVQAGGSLRLSCAASGFTMARYAMGSYRQAPGKERELVAAISWSGGSTYYADSVKGRFTISRDNAKNTVYLQMNSLKPEDTAVYYCNAVYATRIGFDYWGQGTQVTVSS", "polyreactivity (PSR sort gate)": "high polyreactivity"},
      {"sequence": "QVQLVESGGGLVQAGGSLRLSCAASGRIFKYYAMGWSRQAPGKERELVPAINRDGGRTYYADSVKGRFTISRDNAKNTVYLQMNSLTPEETAVYYCAASYGYVYTTSLDYWGQGTQVTVSS", "polyreactivity (PSR sort gate)": "low polyreactivity"},
      {"sequence": "QVQLVESGGGLVQAGGSLRLSCGASGYISVGYAMGWYRPAPGKERELVAAITESGGSTYYADSVKGRFTISRDNAKNTVYLQMNSLKPEDSAVYYCAADVIYEDSMDYWGQGTQVTVSS", "polyreactivity (PSR sort gate)": "low polyreactivity"},
      {"sequence": "QVHLVESGGGLVQAGGRLRLSCAASGFTFAHYDMGWYRQAPGKERELVAAITWSGSSTFYADSLKGRFTISRDNAKNTVYLQMYCMKPEDNAVYYCNADYDVSYWFYQDVIYDYWGQGTQVTVSS", "polyreactivity (PSR sort gate)": "low polyreactivity"},
      {"sequence": "QVQLVESGGGLVQAGGSLRLSCAASGFIFYYYAMGWYRQAPGKVRELVAGITATGGSTYYADSVKGRFTISRDNAKNTVYLQMNSLKPEDTAVYYCAAEHGRRATYTWWVIYDYLGQGTQVTVSS", "polyreactivity (PSR sort gate)": "low polyreactivity"},
      {"sequence": "QVQRVESGGGLVQAGGSLRLSCAASGSIFGVYTRGWYRQAPGKESELVAAITSAGSTYADSVKGRFTISRDNAKNTVYLQMNSLKPEDTAVYYCAAGFHKRVTPEILYDYWGQGTQVTVSS", "polyreactivity (PSR sort gate)": "low polyreactivity"},
      {"sequence": "QVQLVESGGGLVQAGGSLRLRCAASGSTLSNYAMGWYRQAPGKERELVAAITWSTGSTYYADSVKGRFTISRDNAKNSVYLQMNSLKPEDTAVYYCNAGSQYLLVGLYDYWGQGTQVTVSS", "polyreactivity (PSR sort gate)": "low polyreactivity"},
      {"sequence": "QVQLVESGGGLVQAGGSLRLSCAASGFIFTVYAMGWYRQAPGKERELVAAINRSGTRTTYADSVKGRFSISRDNAKNTVYIQMNSLKPEDTAVYYCAALSTGSHWQNEYGYWGQGTQVTVSS", "polyreactivity (PSR sort gate)": "low polyreactivity"},
      {"sequence": "QVQLVESGGGLVQAGGSLRLSCAASGFTFSVNAMVWYRQAPGKERELVAAISSRGSITYYADSVKGRFTISRDNAKNTVYLQMNSLKPEDTAVYYCAAKPLTGSSWEDYYWGQGTQVTVSS", "polyreactivity (PSR sort gate)": "high polyreactivity"},
      {"sequence": "QVQLVESGGGLVQEGGSLRLSCAASGFTFRQYAMGRSRQAPGKEMELVAAITKTGGSTYYADSVKGRFTISRDHAKNTVYLQMNSLKPEDPAVYYCNAARETRPRDYYWGQGTQVTVSS", "polyreactivity (PSR sort gate)": "low polyreactivity"},
      {"sequence": "QVQLVESGGGLVQAGGSLRLSCAASGNTFYANVMGWYRQAPGKERELVASITWSGGSTYYADSVKGRFTISRDNAKNTVYLQMNSLKPEDTAVYYCATSGDRLVWGQGTQVTVSS", "polyreactivity (PSR sort gate)": "low polyreactivity"},
      {"sequence": "QDKLVESGGGLVQAGASLRLTCAASGLIIYRNAMGWYIQAPGKERELVATISRRGGRTYYADSVKGRFTISRDNAKNNVYLQMNSLKPEDTAVYYCIADDYRSRGGYDSWGQGTQVTVSS", "polyreactivity (PSR sort gate)": "high polyreactivity"},
      {"sequence": "QVQLVESGGGLVQAGGSLRLSCAASGSILRFNSMGWYRQAPGKERELVATITKGGGRTNYADSVKGRFTISRDNAKKTVYLQMNSLKPQDTSVYYCAEKFIYARYGTFQTDYKIYDYWGQGTQVTVSA", "polyreactivity (PSR sort gate)": "high polyreactivity"},
      {"sequence": "QVQLVESGGGLVQAGGSLRLSCAASGSILLAYVMGWYRPAPGKERELVAAISSGDDTKYADSVKGRFTISRDNAMNTVYLQMNSLKPEDTAVYYCNAYTLDYPYHRFGYWGQGTQVTVSS", "polyreactivity (PSR sort gate)": "low polyreactivity"},
      {"sequence": "QVQLVESGGGLVQAGGSLRLSCAASGFTYRRYAMGWYRQAPGKERELVAAITWSGGSTYYADSVKGRITISRDNAKNTVYLQMNSLKPEDTAVYYCNKAYSPLYFSYNYWGQGTQVTVSS", "polyreactivity (PSR sort gate)": "high polyreactivity"},
      {"sequence": "QFQLVESGGGLVQAGGSLRLSCAASGRIFYYNAMGWDRQAPGKERELVASISTGGGSTYYADSVKGRFTISRDNAKNTVYLQMNSLKTEDTAVYYCAARALTRSVPYGFYYWGQGTQVTVSS", "polyreactivity (PSR sort gate)": "high polyreactivity"},
      {"sequence": "QVQLVESGGGLVQAGGSLRLSCAASGFIYSKYAMRWYRQAPGKERELVAAITFSGGSTYYADSVKGRFTISRDNAKKTVYLQMNSLKPEDTAVYYCNAEGSYPDVSPVLGYDYWGQGTQVTVSS", "polyreactivity (PSR sort gate)": "low polyreactivity"},
      {"sequence": "QVQHVESGGGIVQAGGSLRLSCAASGSTFIYNAMGWYRQAPGKERELVAAIDWSGGDTYYADSVKGRFTISRDNAKNTVYLQMNCLKPEDTAVYYCATRWPHYGGYYYWGQGTQVTVSS", "polyreactivity (PSR sort gate)": "high polyreactivity"},
      {"sequence": "QVQLVESGGGLVQAGGSLRLSCAASGRIFSRYAMGWYRQAPGKERELVATITRRGGSTSYADSVKGRFTISRDNAKNTVYLHMNSLKPEDTAVYYCAAQSFYGIYYGQQDYDYWGQGTQVTVSS", "polyreactivity (PSR sort gate)": "high polyreactivity"},
      {"sequence": "QVQLVESGGRLVQAGGSLRLSCAASGFTFVYYAMGWYRQAPGKERELVAAVSWSGGTTYYADSVKGRFTISRDNAKNTVLLQMNSLKPEDTAVYYCNVYPAYNYFDYDYWGQGTQVTVSS", "polyreactivity (PSR sort gate)": "high polyreactivity"},
      {"sequence": "QVQLVESGVGLVQAGGSLRLSCAASGRIFIKYAMGWYRQAPGKEREFVAAISGRGGSTYYADSVKGRFTISRDNAKNTVYLQMNSLKPEDTAFYYCAKRFFYSGTAAGMYYWGQGTQVTVSS", "polyreactivity (PSR sort gate)": "high polyreactivity"},
      {"sequence": "QVQRVESGGGLVQAGGSLRLSCAASGITFDRYAMGWYRQAPGKETELVAAISSGGRTNYADSVKGRFTISRDNAKNTVYLQMNSLKPEDTEVYYCSKRRARSGQDYDYWGQGTQVTVSS", "polyreactivity (PSR sort gate)": "low polyreactivity"}
    ]}
  ]
}
